# From patent US20140120098A1 (DANSK UNIVERSITET, published 2014)
# Where a chain is given by its changes, count along the chain named. In names and notes the source's numbering stands.
# B1: FIBCD1 FReD A432V (receptor)
# chain: ATGSRPRDCLDVLLSGQQDDGVYSVFPTHYPAGFQVYCDMRTDGGGWTVFQRREDGSVNFFRGWDAYRDGFGRLTGEHWLGLKRIHALTTQAAYELHVDLEDFENGTAYARYGSFGVGLFSVDPEEDGYPLTVADYSGTAGDSLLKHSGMRFTTKDRDSDHSENNCAAFYRGAWWYRNCHTSNLNGQYLRGAHASYVDGVEWSSWTGWQYSLKFSEMKIRPVREDR
# B2: FIBCD1 FReD H415G (receptor)
# chain: B1 chain with H180G, V197A
# Molecular target: T1, acetylated BSA (bovine, UniProt P02769 25-607, acetylated (N-acetyl groups; positions not stated); 125I-labelled or Alexa Fluor 488 C5 maleimide-labelled in the uptake experiments)
# T1 construct: also called NAc-BSA; N-acetyl bovine serum albumin
# T1 sequence (P02769 25-607 limits assumed): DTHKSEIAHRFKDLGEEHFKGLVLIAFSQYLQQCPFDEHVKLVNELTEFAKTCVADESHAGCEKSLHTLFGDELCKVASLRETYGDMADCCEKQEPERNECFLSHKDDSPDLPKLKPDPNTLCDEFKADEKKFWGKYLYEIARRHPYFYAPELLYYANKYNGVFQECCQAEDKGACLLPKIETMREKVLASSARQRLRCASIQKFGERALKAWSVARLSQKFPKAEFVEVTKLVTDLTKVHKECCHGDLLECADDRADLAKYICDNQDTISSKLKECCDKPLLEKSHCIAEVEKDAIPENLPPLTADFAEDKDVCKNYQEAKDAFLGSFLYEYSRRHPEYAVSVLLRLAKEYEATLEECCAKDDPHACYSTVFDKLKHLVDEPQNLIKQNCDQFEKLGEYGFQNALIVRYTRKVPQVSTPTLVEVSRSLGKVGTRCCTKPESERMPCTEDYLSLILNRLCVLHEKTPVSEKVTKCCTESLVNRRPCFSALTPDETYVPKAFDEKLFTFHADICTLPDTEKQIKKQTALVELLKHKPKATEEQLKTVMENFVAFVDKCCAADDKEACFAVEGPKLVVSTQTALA
# Test: ELISA, plates coated with acetylated BSA, 5 mM CaCl2
binder,measurement,value
B1,binding result,no binding
B2,binding result,no binding
